# Data: patent US20170137467A1 (CHROMOTEK, published 2017)
# Square brackets hold non-standard residues; d marks the D form. GABA = NCCCC(=O)O
# T1: BC2T Q12A
# T1 construct: positional scanning library member
# T1 peptide: Ac-PDRKAAVSHWQA-NH2
# T2: BC2T W10G
# T2 construct: positional scanning library member
# T2 peptide: Ac-PDRKAAVSHGQQ-NH2
# T3: BC2T W10V
# T3 construct: positional scanning library member
# T3 peptide: Ac-PDRKAAVSHVQQ-NH2
# T4: BC2T Q12M
# T4 construct: positional scanning library member
# T4 peptide: Ac-PDRKAAVSHWQM-NH2
# T5: BC2T H9P
# T5 construct: positional scanning library member
# T5 peptide: Ac-PDRKAAVSPWQQ-NH2
# T6: BC2T Q12P
# T6 construct: positional scanning library member
# T6 peptide: Ac-PDRKAAVSHWQP-NH2
# T7: BC2T S8F
# T7 construct: positional scanning library member
# T7 peptide: Ac-PDRKAAVFHWQQ-NH2
# T8: BC2T Q11F
# T8 construct: positional scanning library member
# T8 peptide: Ac-PDRKAAVSHWFQ-NH2
# T9: BC2T Q11W
# T9 construct: positional scanning library member
# T9 peptide: Ac-PDRKAAVSHWWQ-NH2
# T10: BC2T H9T
# T10 construct: positional scanning library member
# T10 peptide: Ac-PDRKAAVSTWQQ-NH2
# T11: BC2T Q11T
# T11 construct: positional scanning library member
# T11 peptide: Ac-PDRKAAVSHWTQ-NH2
# T12: BC2T W10N
# T12 construct: positional scanning library member
# T12 peptide: Ac-PDRKAAVSHNQQ-NH2
# T13: BC2T Q11N
# T13 construct: positional scanning library member
# T13 peptide: Ac-PDRKAAVSHWNQ-NH2
# T14: BC2T Q11Y
# T14 construct: positional scanning library member
# T14 peptide: Ac-PDRKAAVSHWYQ-NH2
# T15: BC2T W10C(Abu) (SMILES …)
# T15 construct: positional scanning library member
# T15 peptide: Ac-PDRKAAVSH[GABA]QQ-NH2
# T16: BC2T Q11C(Abu) (SMILES …)
# T16 construct: positional scanning library member
# T16 peptide: Ac-PDRKAAVSHW[GABA]Q-NH2
# T17: BC2T H9K
# T17 construct: positional scanning library member
# T17 peptide: Ac-PDRKAAVSKWQQ-NH2
# T18: BC2T W10R
# T18 construct: positional scanning library member
# T18 peptide: Ac-PDRKAAVSHRQQ-NH2
# T19: BC2T Q11R
# T19 construct: positional scanning library member
# T19 peptide: Ac-PDRKAAVSHWRQ-NH2
# What was measured:
# Assay in all cases: positional peptide library pulldown on immobilised Nb, LC-MS of supernatant; signal ratio to control GFP-Nb (1 = not captured, near 0 = captured)
# BC2T Q12A = molecular target: T1, BC2T Q12A
# From the text: (§1) In total, 12 different BC2T libraries displaying all 20 proteinogenic amino acids in one single position of the peptide were used in immunoprecipitation experiments. […] The direct comparison with the GFP-Nb made it possible to determine the quantitative degree of peptide capture without the need of labeled standards. […] The more peptide was captured the more the value approximates 0. It was not possible to discriminate between isoleucine (I) and leucine (L) peptide versions since these peptides are isobaric.
# (§2) To investigate the binding specificity of the BC2T and derived mutants peptide libraries for each amino acid position of the sequence […] (SEQ ID NO:4) were synthesized with acetyl and amide groups located at the N-termini or C-termini respectively (Intavis). […] Incubations were performed in 300 μl PBS/0.01% CHAPS for 1 h on a HulaMixer (Life Technologies). Subsequent to a centrifugation step 10 μl supernatant were analyzed in a LC-MS procedure. Peptides were separated using an UltiMate3000 RSLCnano System (Thermo Scientific), composed of a C18 PepMap100μ-Precolumn (300 μm×5 mm; particle size: 5 μm; pore size: 100 Å—Thermo Scientific) and a C18 analytical column (Acclaim Rapid Separation LC (RSLC) Column: 150 mm×5 mm; particle size: 2.2 μm; pore size: 100 Å—Thermo Scientific). A step gradient was applied starting at 8% and ending after 20 min at 30% eluent B (80% acetonitrile, 20% H₂O, 0.1% formic acid).
# BC2T W10G = molecular target: T2, BC2T W10G
# From the text: as §1, §2
# BC2T W10V = molecular target: T3, BC2T W10V
# From the text: as §1, §2
# BC2T Q11(I/L1) = molecular target: T20, BC2T Q11(I/L1) (N-terminal acetyl; C-terminal amide)
# T20 construct: positional scanning library member; I or L not resolved
# From the text: as §1, §2
# BC2T W10(I/L2) = molecular target: T21, BC2T W10(I/L2) (N-terminal acetyl; C-terminal amide)
# T21 construct: positional scanning library member; I or L not resolved
# From the text: as §1, §2
# BC2T Q12M = molecular target: T4, BC2T Q12M
# From the text: as §1, §2
# BC2T H9P = molecular target: T5, BC2T H9P
# From the text: as §1, §2
# BC2T Q12P = molecular target: T6, BC2T Q12P
# From the text: as §1, §2
# BC2T S8F = molecular target: T7, BC2T S8F
# From the text: as §1, §2
# BC2T Q11F = molecular target: T8, BC2T Q11F
# From the text: as §1, §2
# BC2T Q11W = molecular target: T9, BC2T Q11W
# From the text: as §1, §2
# BC2T H9T = molecular target: T10, BC2T H9T
# From the text: as §1, §2
# BC2T Q11T = molecular target: T11, BC2T Q11T
# From the text: as §1, §2
# BC2T W10N = molecular target: T12, BC2T W10N
# From the text: as §1, §2
# BC2T Q11N = molecular target: T13, BC2T Q11N
# From the text: as §1, §2
# BC2T Q11Y = molecular target: T14, BC2T Q11Y
# From the text: as §1, §2
# BC2T W10C(Abu) = molecular target: T15, BC2T W10C(Abu)
# From the text: as §1, §2
# BC2T Q11C(Abu) = molecular target: T16, BC2T Q11C(Abu)
# From the text: as §1, §2
# BC2T H9K = molecular target: T17, BC2T H9K
# From the text: as §1, §2
# BC2T W10R = molecular target: T18, BC2T W10R
# From the text: as §1, §2
# BC2T Q11R = molecular target: T19, BC2T Q11R
# From the text: as §1, §2
binder,measurement,setting,value
"BC2 nanobody (VHH, immobilised on beads in this assay; also called BC2-Nb; BC2 nanotrap (immobilised)) VHH: QVQLVESGGGLVQPGGSLTLSCTASGFTLDHYDIGWFRQAPGKEREGVSCINNSDDDTYYADSVKGRFTIFMDNAKDTVYLQMNSLKPEDTAIYYCAEARGCKRGRYEYDFWGQGTQVTVSS",ratio,BC2T Q12A,0.1
same,ratio,BC2T W10G,1.2
same,ratio,BC2T W10V,1
same,ratio,BC2T Q11(I/L1),0.1
same,ratio,BC2T W10(I/L2),1
same,ratio,BC2T Q12M,0.1
same,ratio,BC2T H9P,0.8
same,ratio,BC2T Q12P,0.1
same,ratio,BC2T S8F,0.7
same,ratio,BC2T Q11F,0
same,ratio,BC2T Q11W,0
same,ratio,BC2T H9T,0.2
same,ratio,BC2T Q11T,0.1
same,ratio,BC2T W10N,1
same,ratio,BC2T Q11N,0.1
same,ratio,BC2T Q11Y,0
same,ratio,BC2T W10C(Abu),1
same,ratio,BC2T Q11C(Abu),0.1
same,ratio,BC2T H9K,0.2
same,ratio,BC2T W10R,1
same,ratio,BC2T Q11R,0
"BC2-NbR106S (VHH, headlock mutant of BC2-Nb; immobilised on beads in this assay) VHH: QVQLVESGGGLVQPGGSLTLSCTASGFTLDHYDIGWFRQAPGKEREGVSCINNSDDDTYYADSVKGRFTIFMDNAKDTVYLQMNSLKPEDTAIYYCAEARGCKRGSYEYDFWGQGTQVTVSS",ratio,BC2T Q12A,0.3
same,ratio,BC2T W10G,1.1
same,ratio,BC2T W10V,1
same,ratio,BC2T Q11(I/L1),0.2
same,ratio,BC2T W10(I/L2),1.1
same,ratio,BC2T Q12M,0.3
same,ratio,BC2T H9P,1
same,ratio,BC2T Q12P,0.2
same,ratio,BC2T S8F,0.9
same,ratio,BC2T Q11F,0.2
same,ratio,BC2T Q11W,0.1
same,ratio,BC2T H9T,0.5
same,ratio,BC2T Q11T,0.2
same,ratio,BC2T W10N,1.1
same,ratio,BC2T Q11N,0.3
same,ratio,BC2T Q11Y,0.1
same,ratio,BC2T W10C(Abu),1
same,ratio,BC2T Q11C(Abu),0.3
same,ratio,BC2T H9K,0.3
same,ratio,BC2T W10R,1.1
same,ratio,BC2T Q11R,0.1
